Experimental data reported in patent US20230250178A1 (published 2023).
Read-outs that look alike come from different tables or passages of the source.

Columns and labels:
cynomolgus CCR8 [1] = molecular target: T1, cynomolgus CCR8 (cynomolgus, UniProt O97665 1-356 (rhesus entry)); test: FACS, CHO-cynoCCR8
T1 construct: also called cynoCCR8; G7NYJ2_CCR8_MACFA

human CCR8 [2] = molecular target: T2, human CCR8 (human, UniProt P51685 1-355); test: FACS, CHO-hCCR8
T2 construct: also called hCCR8; P51685_CCR8_HUMAN

[3] = molecular target: T3, HUMAN_TRD_Ys peptide (# 4) (human, Y(SO3) at printed positions 4, 16, 18 (Y3, Y15, Y17 of CCR8); C-terminal K(Biot)); test: SPR, peptide on SA chip
T3 construct: sulfated
T3 peptide: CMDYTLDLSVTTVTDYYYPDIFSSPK
Method: (§1) SPR binding assays were performed to systematically evaluate antibody binding to a) non-sulfated vs sulfated antigen, b) TRD vs N term and c) human vs cynomolgus CCR8. SPR binding assays were performed on a Biacore T200 instrument (Cytiva) at 25° C. with assay buffer 1× HBS-EP+(order no. BR100826, Cytiva). Peptides were used as ligands and were captured using their C-terminal biotin label on to a streptavidin coated sensor chip (“Sensor Chip SA”, Order No. BR100398, Cytiva). To this end, a terminal lysine (K) was added at the C-term of each peptide for biotinylation. For the N term of CCR8, the naturally occurring cysteine between TRD and LID domain was replaced by a serine. […] The concentration of analyte in assay buffer was 0.05-10 nM and the measurement was performed in multicycle kinetics mode. The sensor surface was regenerated with glycine pH 2.0 after each cycle. Obtained sensorgrams were double referenced (subtraction of reference flow cell signal and buffer injection) and were fitted to a 1:1 Langmuir binding model to derive kinetic data using the Biacore T200 Evaluation software.

[4] = molecular target: T4, Cyno_TRD_Ys peptide (# 2) (cynomolgus, Y(SO3) at printed positions 4, 16, 18 (Y3, Y15, Y17 of CCR8); C-terminal K(Biot)); test: SPR, peptide on SA chip
T4 construct: sulfated
T4 peptide: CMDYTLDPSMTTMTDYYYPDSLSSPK
Method: as §1

[5] = molecular target: T5, Cyno_NTerm_Ys peptide (# 6) (cynomolgus, Y(SO3) at printed positions 4, 16, 18 (Y3, Y15, Y17 of CCR8); C-terminal K(Biot)); test: SPR, peptide on SA chip
T5 construct: sulfated; natural cysteine between TRD and LID replaced by serine
T5 peptide: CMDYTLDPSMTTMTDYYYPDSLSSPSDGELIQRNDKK
Method: as §1

[6] = molecular target: T6, HUMAN_NTerm_Ys peptide (# 8) (human, Y(SO3) at printed positions 4, 16, 18 (Y3, Y15, Y17 of CCR8); C-terminal K(Biot)); test: SPR, peptide on SA chip
T6 construct: sulfated; natural cysteine between TRD and LID replaced by serine
T6 peptide: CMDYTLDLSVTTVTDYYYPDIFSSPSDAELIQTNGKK
Method: as §1

human CCR8 [7] = molecular target: T2, human CCR8; test: FACS screening, full length human IgG1
cynomolgus CCR8 [8] = molecular target: T1, cynomolgus CCR8; test: FACS screening, full length human IgG1
[9] = molecular target: T7, FcRn of the FcRn column (Roche, Order No. 8128057001); test: FcRn affinity chromatography, pH gradient
T7 construct: also called immobilized FcRn
Method: A FcRn column (Roche, Order No. 8128057001; prepacked with approximately 1 mL resin; binding capacity: ≥100 μg IgG) was equilibrated with running buffer A: 20 mM MES/HCl pH 5.5 140 mM NaCl. 30 μL of each antibody (1 mg/mL in equilibration buffer) was applied to the column.

cynomolgus CCR8 [10] = molecular target: T1, cynomolgus CCR8; test: FACS, CHO-cynoCCR8; remark: listed apart in the source
human CCR8 [11] = molecular target: T2, human CCR8; test: FACS, HuT78 (endogenous hCCR8)
human CCR8 [12] = molecular target: T2, human CCR8; test: FACS, CHO-hCCR8; remark: listed apart in the source
mouse FcRn = molecular target: T8, mouse FcRn (mouse, UniProt Q61559 22-297, limits assumed); test: SPR pH 6.0, FcRn immobilised
T8 sequence (looked up): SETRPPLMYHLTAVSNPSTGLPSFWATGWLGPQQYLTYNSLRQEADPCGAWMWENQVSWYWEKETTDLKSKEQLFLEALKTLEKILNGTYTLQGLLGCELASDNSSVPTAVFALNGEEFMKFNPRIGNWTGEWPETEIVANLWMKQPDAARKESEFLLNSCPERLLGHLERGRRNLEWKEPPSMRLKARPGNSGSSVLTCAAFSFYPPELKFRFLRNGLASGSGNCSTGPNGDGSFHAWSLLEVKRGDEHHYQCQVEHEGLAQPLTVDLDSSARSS

cynomolgus FcRn = cynomolgus FcRn (cynomolgus, UniProt Q8SPV9 24-297, limits assumed); test: SPR pH 6.0, FcRn immobilised
human FcRn = molecular target: T9, human FcRn (human, UniProt P55899 24-297); test: SPR pH 6.0, FcRn immobilised
T9 construct: also called neonatal Fc receptor

murine CCR8 [13] = molecular target: T10, murine CCR8 (mouse, UniProt P56484 1-353); test: FACS, CHO-mCCR8
T10 construct: also called mCCR8; P56484_CCR8_MOUSE
T10 sequence: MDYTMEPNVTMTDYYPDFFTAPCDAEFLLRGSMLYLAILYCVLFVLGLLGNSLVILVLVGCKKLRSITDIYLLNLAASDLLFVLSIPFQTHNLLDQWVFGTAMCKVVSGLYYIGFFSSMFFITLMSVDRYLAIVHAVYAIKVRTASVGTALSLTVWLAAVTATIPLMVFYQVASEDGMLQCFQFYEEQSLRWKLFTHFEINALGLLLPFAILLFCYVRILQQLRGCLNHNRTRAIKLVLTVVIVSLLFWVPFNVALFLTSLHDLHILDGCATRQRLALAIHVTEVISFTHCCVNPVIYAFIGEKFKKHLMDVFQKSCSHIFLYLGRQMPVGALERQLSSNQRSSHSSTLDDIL

murine CCR8 [14] = molecular target: T10, murine CCR8; test: cell-based or functional assay
human CCR8 [15] = molecular target: T2, human CCR8; test: FACS
cynomolgus CCR8 [16] = molecular target: T1, cynomolgus CCR8; test: FACS

T1 sequence (O97665 other isoform, or with tags, fused parts or gaps): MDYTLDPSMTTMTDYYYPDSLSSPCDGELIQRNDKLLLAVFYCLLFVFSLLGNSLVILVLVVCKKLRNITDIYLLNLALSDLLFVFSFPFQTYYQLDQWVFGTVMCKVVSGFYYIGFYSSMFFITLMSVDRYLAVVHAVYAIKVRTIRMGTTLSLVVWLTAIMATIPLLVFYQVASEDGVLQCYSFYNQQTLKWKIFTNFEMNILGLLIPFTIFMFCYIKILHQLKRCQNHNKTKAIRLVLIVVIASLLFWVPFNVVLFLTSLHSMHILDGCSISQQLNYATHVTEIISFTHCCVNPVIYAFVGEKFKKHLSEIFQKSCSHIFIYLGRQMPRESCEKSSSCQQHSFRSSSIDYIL
T9 sequence (P55899 24-297 limits assumed, form in doubt): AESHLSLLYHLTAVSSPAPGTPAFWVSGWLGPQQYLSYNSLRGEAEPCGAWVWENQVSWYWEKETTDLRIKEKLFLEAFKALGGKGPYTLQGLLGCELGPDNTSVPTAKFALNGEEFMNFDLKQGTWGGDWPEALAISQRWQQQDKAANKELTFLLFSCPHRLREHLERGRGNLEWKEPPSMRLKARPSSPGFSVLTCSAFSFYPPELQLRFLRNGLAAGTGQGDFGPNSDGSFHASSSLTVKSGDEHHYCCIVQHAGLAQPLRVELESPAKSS
T7 sequence (P55899 24-297, chain 1 of 2): as the sequence (P55899 24-297 limits assumed, form in doubt) above
T7 sequence (P61769 21-119, chain 2 of 2, further chain): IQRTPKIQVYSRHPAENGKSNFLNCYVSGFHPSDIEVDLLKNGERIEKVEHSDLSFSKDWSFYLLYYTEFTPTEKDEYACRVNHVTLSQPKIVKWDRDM
Chain of cynomolgus FcRn (Q8SPV9 24-297 limits assumed, form in doubt): as the sequence (P55899 24-297 limits assumed, form in doubt) above, with N39D, E44Q, G99S, S189G, S190N, L217M, S269T counted along it

B1: TPP-21181 (antibody, human IgG1, lambda, V domains shown)
VH: EVQLLESGGGLVQPGGSLRLSCAASGFTFSSYAMSWVRQAPGKGLEWVSGIRWNNGSKGYAGSVKGRFTISRDNSKNTLYLQMNSLRAEDTAVYYCARSGNYYYGYHGMDVWGQGTLVTVSS
VL: QSVLTQPPSASGTPGQRVTISCSGGNSNIGTYFVSWYQQLPGTAPKLLIYTNNQRPSGVPDRFSGSKSGTSASLAISGLRSEDEADYYCETWDSNTRVFGGGTKLTVLG
notes: also called 18205-gl46-hIgG1-wt-Lambda
With B1 the EC50 (cynomolgus CCR8 [1]) was 1.8 nM, the EC50 (human CCR8 [2]) was 4.8 nM and the Activity in % [3] was 23.8%. For the same binder, the Kd [3] was ~2.87 nM, the koff [3] was ~16 s⁻¹ and the kon [3] was ~5.56e+09 M⁻¹ s⁻¹. The Activity in % [4] was 52.9%, the Kd [4] was ~1.39 nM and the koff [4] was ~5.87 s⁻¹. The kon [4] was ~4.23e+09 M⁻¹ s⁻¹, the Activity in % [5] was 78.5% and the Kd [5] was ~0.868 nM. For the same binder, the koff [5] was ~10.7 s⁻¹, the Activity in % [6] was 17% and the Kd [6] was ~2.88 nM. For the same binder, the koff [6] was ~0.0222 s⁻¹ and the kon [6] was ~7.69e+06 M⁻¹ s⁻¹.

B2: TPP-17575 (antibody, human IgG1, lambda, V domains shown)
VH: EVQLLESGGGLVQPGGSLRLSCAASGFTFRSYAMHWVRQAPGKGLEWVSLISWDGGSTYYADSVKGRFTISRDNSKNTLYLQMNSLRAEDTAVYYCARGGIGRRPGLEYWGQGTLVTVSS
VL: QSVLTQPPSASGTPGQRVTISCSGSSSNIGNNYVSWYQQLPGTAPKLLIYGNSNRPSGVPDRFSGSKSGTSASLAISGLRSEDEADYYCQTWGTGIRVFGGGTKLTVLG
notes: also called 497A-M181-C17-1-hIgG1Lambda
B2: binds (human CCR8 [7]); binds (cynomolgus CCR8 [8]).

B3: TPP-17576 (antibody, human IgG1, lambda, V domains shown)
VH: EVQLLESGGGLVQPGGSLRLSCAASGFTFSSYAMSWVRQAPGKGLEWVGRIRSKANSYATAYAASVKGRFTISRDNSKNTLYLQMNSLRAEDTAVYYCTRPLDSWGQGTLVTVSS
VL: QSVLTQPPSASGTPGQRVTISCSGSSSNIGNNAVNWYQQLPGTAPKLLIYRNNQRSSGVPDRFSGSKSGTSASLAISGLRSEDEADYYCQSYDNSLSASVFGGGTKLTVLG
notes: also called 497A-M136-021-1-hIgG1Lambda
B3: binds (human CCR8 [7]); binds (cynomolgus CCR8 [8]).

B4: TPP-17579 (antibody, human IgG1, lambda, V domains shown)
VH: EVQLLESGGGLVQPGGSLRLSCAASGFTFVTYWMTWVRQAPGKGLEWVSGVSWNGSRTHYVDSVKRRFTISRDNSKNTLYLQMNSLRAEDTAVYYCARYSGYPDYYGMDVWGQGTLVTVSS
VL: QSVLTQPPSASGTPGQRVTISCSGSWSNIGNDNVYWYQQLPGTAPKLLIYRNNQRPSGVPDRFSGSKSGTSASLAISGLRSEDEADYYCQSYDRSLSGSVFGGGTKLTVLG
notes: also called 497A-M180-K04-1-hIgG1Lambda
B4: binds (human CCR8 [7]); binds (cynomolgus CCR8 [8]).

B5: TPP-27495 (antibody, human IgG1, lambda)
heavy: EVQLLESGGGLVQPGGSLRLSCAASGFTFSSYGMHWVRQAPGKGLEWVSAINWNGGSTGYADSVKGRFTISRDNSKNTLYLQMNSLRAEDTAVYYCARGHHSGYDGRFFDYWGQGTLVTVSSASTKGPSVFPLAPSSKSTSGGTAALGCLVKDYFPEPVTVSWNSGALTSGVHTFPAVLQSSGLYSLSSVVTVPSSSLGTQTYICNVNHKPSNTKVDKKVEPKSCDKTHTCPPCPAPELLGGPSVFLFPPKPKDTLYITREPEVTCVVVDVSHEDPEVKFNWYVDGVEVHNAKTKPREEQYNSTYRVVSVLTVLHQDWLNGKEYKCKVSNKALPAPIEKTISKAKGQPREPQVYTLPPSRDELTKNQVSLTCLVKGFYPSDIAVEWESNGQPENNYKTTPPVLDSDGSFFLYSKLTVDKSRWQQGNVFSCSVMHEALHNHYTQKSLSLSPGK
light: not shown
modifications: 70% afucosylated
notes: also called TPP-27495 (YTE); copies: 2 + 2
For B5, the “pH at Elution” value [9] was 7.88 pH, the EC50 (cynomolgus CCR8 [10]) was 0.535 nM and the EC50 (human CCR8 [11]) was 3.25 nM. For the same binder, the EC50 (human CCR8 [12]) was 1.32 nM, the Kd (mouse FcRn) was 33 nM and the Kd (cynomolgus FcRn) was 30 nM. For the same binder, the Kd (human FcRn) was 29 nM.

B6: TPP-14095 (antibody, human IgG1, lambda, V domains shown)
VH: EVQLLESGGGLVQPGGSLRLSCAASGFTFSSYGMHWVRQAPGKGLEWVSAISGSGGSTYYADSVKGRFTISRDNSKNTLYLQMNSLRAEDTAVYYCARGRQLGSWGQGTLVTVSS
VL: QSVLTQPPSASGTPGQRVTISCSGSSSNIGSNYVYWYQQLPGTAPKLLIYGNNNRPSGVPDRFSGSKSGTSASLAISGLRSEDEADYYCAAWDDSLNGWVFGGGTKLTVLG
notes: anti-murine CCR8, human IgG1 lambda; also called 497A-M005-E07-hIgG1Lambda
With B6 the EC50 (murine CCR8 [13]) was 0.7 nM, the “IC50, Ca flux assay” value (murine CCR8 [14]) was 1.65 nM and the binding result (human CCR8 [15]) was “no binding”. B6: no binding (cynomolgus CCR8 [16]).

B7: TPP-17581 (antibody, human IgG1, lambda, V domains shown)
VH: EVQLLESGGGLVQPGGSLRLSCAASGFTFSNYRMTWVRQAPGKGLEWVSGINWNGGSTGYADSVKGRFTISRDNSKNTLYLQMNSLRAEDTAVYYCARGRFDTRGFYGFDYWGQGTLVTVSS
VL: QSVLTQPPSASGTPGQRVTISCTGSSSNIGAGYDVHWYQQLPGTAPKLLIYSHNQRPSGVPDRFSGSKSGTSASLAISGLRSEDEADYYCSAWDSSLSAWVFGGGTKLTVLG
notes: also called 497A-M177-L03-1-hIgG1Lambda
B7: binds (human CCR8 [7]); binds (cynomolgus CCR8 [8]).

B8: TPP-18207 (antibody, human IgG1, lambda, V domains shown)
VH: EVQLLESGGGLVQPGGSLRLSCAASGFTFSNAWMSWVRQAPGKGLEWVSGINWNGGSTGYADSVKGRFTISRDNSKNTLYLQMNSLRAEDTAVYYCARTYTGNYGPYFDYWGQGTLVTVSS
VL: QSVLTQPPSASGTPGQRVTISCTGSSSNIGAGYDVHWYQQLPGTAPKLLIYKNNQRPSGVPDRFSGSKSGTSASLAISGLRSEDEADYYCAAWDDSLRGWVFGGGTKLTVLG
notes: also called 001-B08_497A-M301-B18 + 497A-M316-D16-hIgG1Lambda
B8: binds (human CCR8 [7]); binds (cynomolgus CCR8 [8]).

B9: TPP-17580 (antibody, human IgG1, lambda, V domains shown)
VH: EVQLLESGGGLVQPGGSLRLSCAASGFTFSSYGMHWVRQAPGKGLEWVSGVSWNGSRTRYADSVKGRFTISRDNSKNTLYLQMNSLRAEDTAVYYCTRGSYNSGWYAVSWGQGTLVTVSS
VL: QSVLTQPPSASGTPGQRVTISCSGSSSNIGSYPVNWYQQLPGTAPKLLIYRNNQRPSGVPDRFSGSKSGTSASLAISGLRSEDEADYYCSSYSVTDNLIFGGGTKLTVLG
notes: also called 497A-M193-A08-1-hIgG1Lambda
B9: binds (human CCR8 [7]); binds (cynomolgus CCR8 [8]).
